# B1: GS3938 (nucleic acid)
# sense: AUCGGCAAAAGUAAUGCUUCAAAAGCUGAUACAAAGACUAUAUGGAGAGGAGCUUUAAAUAUAUUGGAAGACUUAAAAAACGCAGAAAAGGAUUGGAGAUUUGGGAAAACUGAAAUUGUAGGGUUUGACAUUGAGAGAGAGAACCAAAUAGAUUGCCCUCAAAGUGAUAUGGAAAUCUUGCAGCAACAGUCAAGCAACACUGCAAGCUAUGCCAAUAAUUUCACCUCCGACCUUACACCUGAAGGCCGCCCAACAGGAAAAGUUACGAAAGCUCGAUUUCAGUCUGCAGAAAUAGGAAAAUGUACUCAAGUUGGAUGGGGAGUCGUACACCUAUACCGUGAUGAUAACGAUGCUGUUAAUUUUGAUACCCGAACUACUACAUACGAUGGAAA
# antisense: UUUCCAUCGUAUGUAGUAGUUCGGGUAUCAAAAUUAACAGCAUCGUUAUCAUCACGGUAUAGGUGUACGACUCCCCAUCCAACUUGAGUACAUUUUCCUAUUUCUGCAGACUGAAAUCGAGCUUUCGUAACUUUUCCUGUUGGGCGGCCUUCAGGUGUAAGGUCGGAGGUGAAAUUAUUGGCAUAGCUUGCAGUGUUGCUUGACUGUUGCUGCAAGAUUUCCAUAUCACUUUGAGGGCAAUCUAUUUGGUUCUCUCUCUCAAUGUCAAACCCUACAAUUUCAGUUUUCCCAAAUCUCCAAUCCUUUUCUGCGUUUUUUAAGUCUUCCAAUAUAUUUAAAGCUCCUCUCCAUAUAGUCUUUGUAUCAGCUUUUGAAGCAUUACUUUUGCCGAU
# B2: GS3935 (nucleic acid)
# sense: CACCGCAGGAAACAACACGAGUAAAAUCAUUUUCUUCAACAACAUCUUCUGCAGCAAAAAAAUUUUCUCGUGCACUCUUAUGGCGGUCAAUUUGUAGAGAUUGCUCAUCGAAGACAAUCUGACCAUCAACGAUGCGAAUUUUAGGACCAACCGGAGGAGCAGACGGCGGUGCGAUUUGGCUAUUUAAACUUGGCUCAGUCUUUCUACUUUCAUUUAGGGUAUAAUUGUCACCACUUUUUCCAUCUAUAUAAUCUUCAAGUUCAGGGUUAUCUCGCUUCAUCCUAGCUUUGAUAGCAUUUUGUUUCAUUCGUGCAAGUCGUCCCAUUAUCUCAUCGUGGUUUCUAGACUUUUUACCAAUACGAAGAUCAUGACAUAAGUCUUGCAUGGUAAUAACAGAA
# antisense: UUCUGUUAUUACCAUGCAAGACUUAUGUCAUGAUCUUCGUAUUGGUAAAAAGUCUAGAAACCACGAUGAGAUAAUGGGACGACUUGCACGAAUGAAACAAAAUGCUAUCAAAGCUAGGAUGAAGCGAGAUAACCCUGAACUUGAAGAUUAUAUAGAUGGAAAAAGUGGUGACAAUUAUACCCUAAAUGAAAGUAGAAAGACUGAGCCAAGUUUAAAUAGCCAAAUCGCACCGCCGUCUGCUCCUCCGGUUGGUCCUAAAAUUCGCAUCGUUGAUGGUCAGAUUGUCUUCGAUGAGCAAUCUCUACAAAUUGACCGCCAUAAGAGUGCACGAGAAAAUUUUUUUGCUGCAGAAGAUGUUGUUGAAGAAAAUGAUUUUACUCGUGUUGUUUCCUGCGGUG
# B3: GS1817: dsRNA trigger SEQ ID NO 139; gene target Cell division control protein 48 (nucleic acid)
# DNA: GCTTCGCGAAAGTAAGGTGCAAGGAAAACATCAAAGAGGGAACCAGTAAGGCCTTCAACAGTATCTGCGATAGGAAGAACTGCGATACGTTTGGCGTATTTTATATCAGGACATGGATGTACTGTAACAATATCACCATGTTTAACCCTAAGGTTGTGTCGGACAACACGATTCATACGAGCACTCCCGTCATCTAAATCATCATCTGCGAGTACAATTAAAACAGTATCCTTTCGCTTCTTCCCCTTAACTAGGACAGTATCTCCACGAAAAAGCTGCAAAGTTTCCATGGTATTATTTGACAGTGCAATAACAGAGTTATCATCGTTGATGGCATCTGTTACAATTAAGGAATTTGGCTTTTTCTTCTTTTTTAAAATAGCAGTCGCAGTAGCATCAATCGTCTTTTGTTCAGCGCCAGAGGCATCCTCAAGTTTAACTGTTTTTTTACGAGTAGCATTGTCTTCAGACATAGTTGTGTAATAAAAGTTAAGAGGGCGTAATTTCCTAGAAAGAATATATCTACTATTAATTTATTGAGATCTTGGAATGAAGGTTTATCCGATAAAATCTGTAAATGATGGAGCTAATCTGAAG
# B4: GS3939 (nucleic acid)
# sense: AAGAUUGAAAAUGGAACGCCUAGAACAGCACCUUUAAUUACAACACGAAGGACUCCGAAAAUGCUACGAUCUACUGUGUCAAAUUCCUCGCUUUCCUCACAACCAUCAAUGUCACCGCAUCAAUUUAUUGCUCUUGCCCGGGAAGCAAUGAAAAAUGCUUUGGAAGAGAACAAAUCAAAGGCAGCUGAGGCCAAAAGUGUUAGUAAUGAACUUAAGCCAGGGGUUACGAUCGAUUUUAGCAACAAACAAAUCCAACGAUUUCCUGAUGAAGUAAUUGAUAUAAUAAAGAAUGAGCUUGAAAGACUUGCGCUGUCACAUAAUCAAAUAUCUGUGUUUCCCUCAAGGUUUUCCGAAUGCAAAUCACUCCGAUACCUCAAUGUUAGAGAUAAUGUUAU
# antisense: AUAACAUUAUCUCUAACAUUGAGGUAUCGGAGUGAUUUGCAUUCGGAAAACCUUGAGGGAAACACAGAUAUUUGAUUAUGUGACAGCGCAAGUCUUUCAAGCUCAUUCUUUAUUAUAUCAAUUACUUCAUCAGGAAAUCGUUGGAUUUGUUUGUUGCUAAAAUCGAUCGUAACCCCUGGCUUAAGUUCAUUACUAACACUUUUGGCCUCAGCUGCCUUUGAUUUGUUCUCUUCCAAAGCAUUUUUCAUUGCUUCCCGGGCAAGAGCAAUAAAUUGAUGCGGUGACAUUGAUGGUUGUGAGGAAAGCGAGGAAUUUGACACAGUAGAUCGUAGCAUUUUCGGAGUCCUUCGUGUUGUAAUUAAAGGUGCUGUUCUAGGCGUUCCAUUUUCAAUCUU
# B5: GS3937 (nucleic acid)
# sense: CAUCUCAACGACUUUGUAGAAUAAAUCAUAGUGAGAUACAGGACUGUGUAGAAAUGCCUCACCACAACAUAAAGAUAAGGCAAUUAAAUUAACUAGAUUGUCAAUCAAAAUAUCAAUAUUUUUUAAGCCCCUCAAGUCUGAUGUGUAUGUGGUGAGAAACCGAACAAGAGAAAGCAGUGAUCUAUAUAGUUCAGACCAGUGAUAUUUCAAUCGUGUCCGUGACCGAGAUAGGUAUGAUAAUAUACUAUAAAUGAUACCAAUGCAAAGAAUAUAUAAAUCAACAUCCAGUCGUCGUCUUAGAUUGUGAUUGAUUCCAUCAAGCAUCGCAUCAAGAAGAAUAGCAGCAAUCGAUCUAUCUCCAUGAACAUAAGGAAGGUACGGAGAUUUUUGUCGACAUA
# antisense: UAUGUCGACAAAAAUCUCCGUACCUUCCUUAUGUUCAUGGAGAUAGAUCGAUUGCUGCUAUUCUUCUUGAUGCGAUGCUUGAUGGAAUCAAUCACAAUCUAAGACGACGACUGGAUGUUGAUUUAUAUAUUCUUUGCAUUGGUAUCAUUUAUAGUAUAUUAUCAUACCUAUCUCGGUCACGGACACGAUUGAAAUAUCACUGGUCUGAACUAUAUAGAUCACUGCUUUCUCUUGUUCGGUUUCUCACCACAUACACAUCAGACUUGAGGGGCUUAAAAAAUAUUGAUAUUUUGAUUGACAAUCUAGUUAAUUUAAUUGCCUUAUCUUUAUGUUGUGGUGAGGCAUUUCUACACAGUCCUGUAUCUCACUAUGAUUUAUUCUACAAAGUCGUUGAGAUG
# Test system: E. necator
# Assay: Leaf disc assay, dry inoculum (settling tower), decrease in disease severity / hyphal growth (Example 2)
# Conditions: decrease in disease severity (hyphal growth) relative to untreated control; time point 1 (untreated control hyphal growth ≥50%); value ± SE
row,Molecule,% decrease =/− SE TP1 [%]
1,B1,3 ± 5
2,B2,1 ± 5
3,B3,52 ± 2
4,B4,4 ± 5
5,B5,12 ± 5

# Same assay, conditions: decrease in disease severity (hyphal growth) relative to untreated control; time point 2; value ± SE
row,Molecule,% decrease =/− SE TP2 [%]
1,B3,49 ± 6

# Reference: US12077763B2, “RNA-based control of powdery mildew” (Greenlight Biosciences, Inc., priority 2021, dated 2024)
